The assay addresses Recombinant human Smad2 with C-terminal MYC/DDK tag (human, UniProt Q15796-1 1-467). Description: co-IP.

Chain of Recombinant human Smad2 with C-terminal MYC/DDK tag (Q15796 whole entry): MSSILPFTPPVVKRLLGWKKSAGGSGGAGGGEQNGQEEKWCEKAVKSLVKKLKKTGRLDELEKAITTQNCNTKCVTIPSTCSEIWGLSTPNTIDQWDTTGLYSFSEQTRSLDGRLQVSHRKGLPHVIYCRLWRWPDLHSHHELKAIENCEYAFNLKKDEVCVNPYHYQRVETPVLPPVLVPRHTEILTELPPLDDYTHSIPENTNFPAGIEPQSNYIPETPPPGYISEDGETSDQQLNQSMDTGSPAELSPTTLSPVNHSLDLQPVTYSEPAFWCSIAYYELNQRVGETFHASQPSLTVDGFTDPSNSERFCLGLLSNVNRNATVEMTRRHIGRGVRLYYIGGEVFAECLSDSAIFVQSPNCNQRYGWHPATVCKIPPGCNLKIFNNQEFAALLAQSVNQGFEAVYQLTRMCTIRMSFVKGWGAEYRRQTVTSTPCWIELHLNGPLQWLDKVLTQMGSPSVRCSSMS

As to TRPASFWETS [M10 peptide (caspase-3 cleavage product of the hepatocyte growth factor receptor MET)], the binding result was “binds”.
